For assay [1], the target named is T1, human serum albumin (human, UniProt P02768 25-609).
T1 construct: mature; Bought purified serum albumin; also called HSA; Human albumin
The experiment in a line: SPR, Fab captured; albumin taken as HSA. (In general: Surface plasmon resonance follows binding to a sensor surface in real time, without labels.)
Description: (§1) Each assay cycle consisted of firstly capturing the antibody sample using a 1 min injection, before an association phase consisting of a 3 min injection of albumin, after which dissociation was monitored. After each cycle, the capture surface was regenerated with two 1 min injections of 40 mM HCl followed by 30 s of 5 mM NaOH. The flow rates used were 10 μl/min for capture, 30 μl/min for both the association and dissociation phases, and 10 μl/min for regeneration. A blank flow-cell was used for reference subtraction and buffer-blank injections were included to subtract instrument noise and drift.

Assay [2] has as its target T1, human serum albumin. The assay can be described thus: SPR, humanized IgG1.
Description: (§2) For analysis at pH 7.0, 6.0, 5.5 and 5.0, a running buffer of 40 mM citric acid, 80 mM sodium phosphate 50 mM NaCl, 3 mM EDTA, 0.05% v/v P20 was used. The required pH was achieved by altering the ratio of citric acid to sodium phosphate. All experiments were performed at 25° C. The antibody samples were captured to the sensor chip surface using either a human F(ab′)₂-specific or human Fc-specific goat Fab (Jackson ImmunoResearch). Covalent immobilisation of the capture antibody was achieved by standard amine coupling chemistry to a level of 6000-7000 response units (RU).
as §1
Assay [3] concerns the target T2, mouse serum albumin (mouse, UniProt P07724 25-608).
T2 construct: mature; Bought purified serum albumin; also called MSA; Mouse albumin
The assay can be described thus: SPR, humanized IgG1.
Description: as §2, §1

Assay [4] has as its target T3, rat serum albumin (rat, UniProt P02770 25-608).
T3 construct: mature; Bought purified serum albumin; also called RSA; Rat albumin
The assay can be described thus: SPR, humanized IgG1.
Description: as §2, §1

For assay [5], the target named is T2, mouse serum albumin. The assay can be described thus: SPR.
Description: as §2, §1
The target in assay [6] is T1, human serum albumin. The experiment in a line: SPR, HSA.
Description: as §2, §1
For assay [7], the target named is T1, human serum albumin. The assay can be described thus: SPR, Fab captured, HSA.
Description: as §2, §1
For assay [8], the target named is T1, human serum albumin. The experiment in a line: SPR, Fab captured, albumin titrated.
Description: as §2, §1
Assay [9] concerns the target T2, mouse serum albumin. The experiment in a line: SPR, Fab captured, albumin titrated.
Description: as §2, §1
The target in assay [10] is T1, human serum albumin. The assay can be described thus: SPR, rabbit Fab.
Assay [11] has as its target T2, mouse serum albumin. The assay can be described thus: SPR, rabbit Fab.
Assay [12] has as its target T3, rat serum albumin. The experiment in a line: FMAT, B cell supernatant.

B1: CA645 gL4gH46 Fab (Fab, V domains shown)
VH: EVQLLESGGGLVQPGGSLRLSCAVSGIDLSNYAINWVRQAPGKGLEWIGIIWASGTTFYATWAKGRFTISRDNSKNTVYLQMNSLRAEDTAVYYCARTYPGYSTAPYFDLWGQGTLVTVSS
VL: DIQMTQSPSSVSASVGDRVTITCQSSPSVWSNFLSWYQQKPGKAPKLLIYEASKLTSGVPSRFSGSGSGTDFTLTISSLQPEDFATYYCGGGYSSISDTTFGGGTKVEIK
notes: Fab: human gamma1 CH1, human kappa (Km3); Kabat numbering
One may read the Kd as a measure of binding affinity in units of concentration. A low value points to a tighter complex. A word on the koff: it is the rate constant with which the complex falls apart. A lower koff goes with slow dissociation. By kon is commonly meant the rate constant with which the complex forms. A lower kon goes with slower complex formation. In the assay with human serum albumin [1], B1 had a Kd of 3.26 nM, a koff of 0.000184 s⁻¹ and a kon of 56400 M⁻¹ s⁻¹.

B2: CA645 humanized IgG1 (conservative graft gL1gH1) (antibody, V domains shown)
VH: EVQLLESGGGLVQPGGSLRLSCAVSGIDLSNYAINWVRQAPGKGLEWIGIIWASGTTFYATWAKGRFTISRDSTTVYLQMNSLRAEDTAVYYCARTVPGYSTAPYFDLWGQGTLVTVSS
VL: DIVMTQSPSSVSASVGDRVTITCQSSPSVWSNFLSWYQQKPGKAPKLLIYEASKLTSGVPSRFKGSGSGTDFTLTISSLQPEDFATYYCGGGYSSISDTTFGGGTKVEIK
notes: Human IgG1, full human gamma1 constant region, human kappa constant region (Km3 allotype); also called CA645 gL1gH1
In the case of B2, the Kd was 0.82 nM with human serum albumin [2], 2.9 nM in the assay with mouse serum albumin [3] and 7.9 nM in the assay with rat serum albumin [4].

B3: CA645 gL33gH5 Fab (Fab, V domains shown)
VH: EVQLLESGGGLVQPGGSLRLSCAVSGIDLSNYAINWVRQAPGKGLEWIGIIWASGTTFYATWAKGRFTISRDNSKNTVYLQMNSLRAEDTAVYYCARTVPGYSTAPYFDLWGQGTLVTVSS
VL: DIQMTQSPSSVSASVGDRVTITCQSSPSVWSNFLSWYQQKPGKAPKLLIYEASKLTSGVPSRFSGSGEGTDFTLTISSLQPEDFATYYCGGGYSSISDTTFGGGTKVEIK
notes: as for B1
In the assay with human serum albumin [1], B3 gave a Kd of 3.32 nM, a koff of 0.000179 s⁻¹ and a kon of 54000 M⁻¹ s⁻¹.

B4: CA645 gL30gH5 Fab (Fab, V domains shown)
VH: EVQLLESGGGLVQPGGSLRLSCAVSGIDLSNYAINWVRQAPGKGLEWIGIIWASGTTFYATWAKGRFTISRDNSKNTVYLQMNSLRAEDTAVYYCARTVPGYSTAPYFDLWGQGTLVTVSS
VL: DIQMTQSPSSVSASVGDRVTITCQSSPSVWSNFLSWYQQKPGKAPKLLIYEASKLTSGVPSRFSGSGIGTDFTLTISSLQPEDFATYYCGGGYSSISDTTFGGGTKVEIK
notes: as for B1
B4: in the assay with human serum albumin [1], the affinity, expressed as Kd, was 1.61 nM; the koff was 9.4e-05 s⁻¹; the kon is 58400 M⁻¹ s⁻¹.

B5: CA645 gL11gH5 Fab (Fab, V domains shown)
VH: EVQLLESGGGLVQPGGSLRLSCAVSGIDLSNYAINWVRQAPGKGLEWIGIIWASGTTFYATWAKGRFTISRDNSKNTVYLQMNSLRAEDTAVYYCARTVPGYSTAPYFDLWGQGTLVTVSS
VL: DIQMTQSPSSVSASVGDRVTITCQSSPNVWSNFLSWYQQKPGKAPKLLIYEASKLTSGVPSRFSGSGSGTDFTLTISSLQPEDFATYYCGGGYSSISDTTFGGGTKVEIK
notes: as for B1
In the case of B5, in the assay with human serum albumin [1], the Kd was 4.42 nM, the koff is 0.000249 s⁻¹ and the kon was 56400 M⁻¹ s⁻¹.

B6: CA645 gL29gH5 Fab (Fab, V domains shown)
VH: EVQLLESGGGLVQPGGSLRLSCAVSGIDLSNYAINWVRQAPGKGLEWIGIIWASGTTFYATWAKGRFTISRDNSKNTVYLQMNSLRAEDTAVYYCARTVPGYSTAPYFDLWGQGTLVTVSS
VL: DIQMTQSPSSVSASVGDRVTITCQSSPSVWSNFLSWYQQKPGKAPKLLIYEASKLTSGVPSRFSGSGVGTDFTLTISSLQPEDFATYYCGGGYSSISDTTFGGGTKVEIK
notes: as for B1
Turning to B6, in the assay with human serum albumin [1], binding was put at a Kd of 1.78 nM, the koff was determined as 0.000103 s⁻¹ and the kon came to 57700 M⁻¹ s⁻¹.

B7: CA645 gL5gH5 Fab (Fab, V domains shown)
VH: EVQLLESGGGLVQPGGSLRLSCAVSGIDLSNYAINWVRQAPGKGLEWIGIIWASGTTFYATWAKGRFTISRDNSKNTVYLQMNSLRAEDTAVYYCARTVPGYSTAPYFDLWGQGTLVTVSS
VL: DIQMTQSPSSVSASVGDRVTITCQSSPSVASNFLSWYQQKPGKAPKLLIYEASKLTSGVPSRFSGSGSGTDFTLTISSLQPEDFATYYCGGGYSSISDTTFGGGTKVEIK
notes: as for B1
B7: in the assay with mouse serum albumin [5], the “fold weaker affinity for MSA than for HSA” value is 1.2 fold. In the assay with human serum albumin [6], the “fold weaker affinity than gL4gH5” value stood at 368 fold. In the assay with human serum albumin [7], this molecule came in with a Kd of 453 nM, a koff of 0.0571 s⁻¹ and an association rate constant (kon) of 126000 M⁻¹ s⁻¹. For the same molecule, in the assay with human serum albumin [8], binding was put at a Kd of 254 nM, the koff was found to be 0.022 s⁻¹ and the kon stood at 85000 M⁻¹ s⁻¹. In the assay with mouse serum albumin [9], this molecule registered a Kd of 316 nM, a koff of 0.0038 s⁻¹ and a kon of 12000 M⁻¹ s⁻¹.

B8: CA645 gL32gH5 Fab (Fab, V domains shown)
VH: EVQLLESGGGLVQPGGSLRLSCAVSGIDLSNYAINWVRQAPGKGLEWIGIIWASGTTFYATWAKGRFTISRDNSKNTVYLQMNSLRAEDTAVYYCARTVPGYSTAPYFDLWGQGTLVTVSS
VL: DIQMTQSPSSVSASVGDRVTITCQSSPSVWSNFLSWYQQKPGKAPKLLIYEASKLTSGVPSRFSGSGQGTDFTLTISSLQPEDFATYYCGGGYSSISDTTFGGGTKVEIK
notes: as for B1
Regarding B8, in the assay with human serum albumin [1], the Kd stood at 2.44 nM, the koff stood at 0.000143 s⁻¹ and the kon was found to be 58600 M⁻¹ s⁻¹.

B9: CA645 gL28gH5 Fab (Fab, V domains shown)
VH: EVQLLESGGGLVQPGGSLRLSCAVSGIDLSNYAINWVRQAPGKGLEWIGIIWASGTTFYATWAKGRFTISRDNSKNTVYLQMNSLRAEDTAVYYCARTVPGYSTAPYFDLWGQGTLVTVSS
VL: DIQMTQSPSSVSASVGDRVTITCQSSPSVWSNFLSWYQQKPGKAPKLLIYEASKLTSGVPSRFSGSGLGTDFTLTISSLQPEDFATYYCGGGYSSISDTTFGGGTKVEIK
notes: as for B1
For the molecule B9, in the assay with human serum albumin [1], the Kd was found to be 1.85 nM, the koff was 0.000109 s⁻¹ and the kon stood at 59000 M⁻¹ s⁻¹.

B10: CA645 gL31gH5 Fab (Fab, V domains shown)
VH: EVQLLESGGGLVQPGGSLRLSCAVSGIDLSNYAINWVRQAPGKGLEWIGIIWASGTTFYATWAKGRFTISRDNSKNTVYLQMNSLRAEDTAVYYCARTVPGYSTAPYFDLWGQGTLVTVSS
VL: DIQMTQSPSSVSASVGDRVTITCQSSPSVWSNFLSWYQQKPGKAPKLLIYEASKLTSGVPSRFSGSGTGTDFTLTISSLQPEDFATYYCGGGYSSISDTTFGGGTKVEIK
notes: as for B1
Turning to B10, in the assay with human serum albumin [1], the Kd came out at 2.49 nM, the koff was determined as 0.000142 s⁻¹ and the kon is 57200 M⁻¹ s⁻¹.

B11: CA645 recombinant rabbit Fab (Fab, V domains shown)
VH: QSLEESGGRLVTPGTPLTLTCTVSGIDLSNYAINWVRQAPGKGLEWIGIIWASGTTFYATWAKGRFTISRPSTTVDLEMTSLTTADTATYFCARTVPGYSTAPYFDLWGPGTLVTVSS
VL: AAVLTQTPSPVSAAVGGTVTINCQSSPSVWSNFLSWYQQKPGQPPKLLIYEASKLTSGVPSRFKGSGSGTQFTLTISDVQCGDAATYYCGGGYSSISDTTFGGGTKVVVK
notes: Fab with rabbit heavy CH1 and rabbit light chain constant region
In the case of B11, the dissociation constant Kd with human serum albumin [10] stood at 0.31 nM; with mouse serum albumin [11], 2.6 nM.

B12: CA645 rabbit antibody secreted in B cell supernatant (antibody, V domains shown)
VH: QSLEESGGRLVTPGTPLTLTCTVSGIDLSNYAINWVRQAPGKGLEWIGIIWASGTTFYATWAKGRFTISRPSTTVDLEMTSLTTADTATYFCARTVPGYSTAPYFDLWGPGTLVTVSS
VL: AAVLTQTPSPVSAAVGGTVTINCQSSPSVWSNFLSWYQQKPGQPPKLLIYEASKLTSGVPSRFKGSGSGTQFTLTISDVQCGDAATYYCGGGYSSISDTTFGGGTKVVVK
notes: Rabbit IgG secreted by cultured B cells
B12: the “fold difference of binding level to RSA against HSA” value with rat serum albumin [12] was at most 5 fold.

For the origin of these results see patent US20190144529A1 (UCB, published 2019).
